Test results: patent US20200392251A1 (University of California, published 2020)

Tests used:
[1] = biological target: T1, human MMP-12 catalytic domain wild type (cdMMP-12 wt) (human, UniProt P39900 106-263); assay: BLItz bio-layer interferometry; printed as 'Affinity ... (nM)'
T1 construct: biotinylated for ELISA/BLI; also called wt cdMMP-12; cdMMP-12 wide-type

[2] = biological target: T2, human MMP-12 catalytic domain mutant D4 (cdMMP-12 D4) (human); assay: competitive ELISA: nTIMP-2 (0.8-200 µM) premixed with 500 nM Fab LG4 (the competitor displaced), added to immobilised cdMMP-12 D4, bound Fab detected with anti-Fab-HRP (OD450) [panel A, right]
T2 construct: PROSS-designed expression-optimised mutant; Cytoplasmically expressed in E. coli, purified on Ni-NTA; biotinylated for ELISA/BLI; also called cdMMP-12 mutant D4; modified D4
T2 sequence (chain, as listed by the source mutant limits assumed): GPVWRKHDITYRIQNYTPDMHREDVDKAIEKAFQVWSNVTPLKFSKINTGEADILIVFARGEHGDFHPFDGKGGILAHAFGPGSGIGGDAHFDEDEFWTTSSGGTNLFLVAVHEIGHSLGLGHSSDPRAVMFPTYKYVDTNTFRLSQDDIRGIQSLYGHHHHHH
Description: (§1) On streptavidin coated ELISA plates, 5 μg/mL biotinylated cdMMPs were immobilized and incubated with two-fold serially diluted purified Fabs. Bound Fabs were detected with anti-Fab-HRP (Sigma-Aldrich), and signals were developed by TMB substrate (Thermo Scientific) and measured using a microplate reader (BioTek). […] Bound Fabs were detected using anti-Fab-HRP.

[3] = biological target: T1, human MMP-12 catalytic domain wild type …; assay: competitive ELISA: nTIMP-2 (0.8-200 µM) premixed with 500 nM Fab LG4 (the competitor displaced), added to immobilised cdMMP-12 wt, bound Fab detected with anti-Fab-HRP (OD450) [panel B, right]
Description: as §1

[4] = biological target: T2, human MMP-12 catalytic domain mutant D4 …; assay: competitive ELISA: nTIMP-2 (0.8-200 µM) premixed with 500 nM Fab LH6 (the competitor displaced), added to immobilised cdMMP-12 D4, bound Fab detected with anti-Fab-HRP (OD450) [panel A, right]
Description: as §1

[5] = biological target: T1, human MMP-12 catalytic domain wild type …; assay: competitive ELISA: nTIMP-2 (0.8-200 µM) premixed with 500 nM Fab LH6 (the competitor displaced), added to immobilised cdMMP-12 wt, bound Fab detected with anti-Fab-HRP (OD450) [panel B, right]
Description: as §1

[6] = biological target: T2, human MMP-12 catalytic domain mutant D4 …; assay: competitive ELISA: nTIMP-2 (0.8-200 µM) premixed with 500 nM Fab LH11 (the competitor displaced), added to immobilised cdMMP-12 D4, bound Fab detected with anti-Fab-HRP (OD450) [panel A, right]
Description: as §1

[7] = biological target: T1, human MMP-12 catalytic domain wild type …; assay: competitive ELISA: nTIMP-2 (0.8-200 µM) premixed with 500 nM Fab LH11 (the competitor displaced), added to immobilised cdMMP-12 wt, bound Fab detected with anti-Fab-HRP (OD450) [panel B, right]
Description: as §1

T1 sequence (P39900 other isoform, or with tags, fused parts or gaps limits assumed): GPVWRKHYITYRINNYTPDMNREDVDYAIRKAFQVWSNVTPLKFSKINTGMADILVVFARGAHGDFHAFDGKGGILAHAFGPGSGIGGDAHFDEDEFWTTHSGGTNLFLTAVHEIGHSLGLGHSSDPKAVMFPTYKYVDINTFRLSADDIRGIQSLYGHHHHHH

Kd [1]: 0.15 µM
EC50 [2]: 42 µM
EC50 [3]: 44 µM
EC50 [4]: 23 µM
EC50 [5]: 32 µM
EC50 [6]: 18 µM
EC50 [7]: 26 µM
B1: N-terminal domain of tissue inhibitor of metalloproteinases 2 (nTIMP-2) (other, UniProt P16035 27-153, looked up)
chain: CSCSPVHPQQAFCNADVVIRAKAVSEKEVDSGNDIYGNPIKRIQYEIKQIKMFKGPEKDIEFIYTAPSSAVCGVSLDVGGKKEYLIAGKAEGDGKMHITLCDFIVPWDTLSTTQKKSLNHRYQMGCE
notes: domain: N-terminal domain; Periplasmically expressed and purified as reported elsewhere
